Experiment [1] concerns the target GHSR on the PathHunter U2OS GHSR beta-Arrestin Cell Line (DiscoverX), Q92847. As to the kind of experiment: cell-based or functional assay.
The target of experiment [2] is wild-type GHSR stably expressed in an independent cell line (calcium mobilization assay), Q92847. As to the kind of experiment: cell-based or functional assay.

Ends that are not written are not given here.

We go through 1 molecule from patent publication US20210101973A1.

Sequence of wild-type GHSR stably expressed in an independent cell line (calcium mobilization assay), Q92847 (Q92847 whole entry): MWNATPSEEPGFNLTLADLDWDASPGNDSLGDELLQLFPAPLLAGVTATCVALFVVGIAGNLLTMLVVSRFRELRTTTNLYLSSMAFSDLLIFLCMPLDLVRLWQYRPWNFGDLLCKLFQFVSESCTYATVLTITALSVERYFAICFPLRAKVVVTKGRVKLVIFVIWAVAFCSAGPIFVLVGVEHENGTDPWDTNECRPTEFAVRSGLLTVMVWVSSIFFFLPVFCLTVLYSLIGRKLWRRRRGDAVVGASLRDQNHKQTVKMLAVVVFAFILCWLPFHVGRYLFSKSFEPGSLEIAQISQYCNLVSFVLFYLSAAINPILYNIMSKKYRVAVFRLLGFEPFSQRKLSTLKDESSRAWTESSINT

B1: synthetic LEAP2 peptide (mature peptide of human LEAP2) (peptide)
peptide: MTPFWRGVSLRPIGASCRDDSECITRLCRKRRCSLSVAQE
modifications: disulfide (positions not given here); also: labeled with Alexa 647, site not given here
As to B1, in experiment [1], the IC50 of inhibition of ghrelin-induced GHSR activation, PathHunter beta-arrestin assay, antagonist format (ghrelin 13 nM) turned out to be 6.74 nM. Also, in experiment [2], the IC50 of abrogation of ghrelin-induced GHSR activity, calcium mobilization (FLUO-3) stood at 11.6 nM.
